From patent JP2002536968A (dated 2002)
Each block holds one binder with its values, some of them ahead of it.

Key:
可溶性融合タンパク質 KDR-AP [1] = target: T1, 可溶性融合タンパク質 KDR-AP (human, UniProt P35968 20-764); assay: BIAcore, KDR-AP immobilised, antibody injected at 25-200 nM
T1 construct: extracellular domain; Made in NIH3T3 cells; also called KDR-アルカリ性ホスファターゼ融合タンパク質; 固定化KDR; not shown: human placental alkaline phosphatase (AP), from vector AP-tag

可溶性融合タンパク質 KDR-AP [2] = target: T1, 可溶性融合タンパク質 KDR-AP; assay: BIAcore, KDR-AP immobilised (refers to Table 2)
HUVEC上の細胞表面発現KDR (human) = HUVEC上の細胞表面発現KDR (human) (UniProt P35968); assay: cell-based or functional assay
可溶性融合タンパク質 KDR-AP [3] = target: T1, 可溶性融合タンパク質 KDR-AP; assay: competitive VEGF binding ELISA: antibody mixed with KDR-AP, then on VEGF165-coated plate
可溶性融合タンパク質 KDR-AP [4] = target: T1, 可溶性融合タンパク質 KDR-AP; assay: competitive VEGF blocking ELISA: scFv mixed with KDR-AP, then on VEGF165-coated plate
可溶性融合タンパク質 KDR-AP [5] = target: T1, 可溶性融合タンパク質 KDR-AP; assay: BIAcore, KDR-AP immobilised, soluble scFv injected
可溶性融合タンパク質 KDR-AP [6] = target: T1, 可溶性融合タンパク質 KDR-AP; assay: direct binding ELISA, soluble scFv on KDR-coated plate; concentration for 50% of maximal binding

T1 sequence (P35968 20-764): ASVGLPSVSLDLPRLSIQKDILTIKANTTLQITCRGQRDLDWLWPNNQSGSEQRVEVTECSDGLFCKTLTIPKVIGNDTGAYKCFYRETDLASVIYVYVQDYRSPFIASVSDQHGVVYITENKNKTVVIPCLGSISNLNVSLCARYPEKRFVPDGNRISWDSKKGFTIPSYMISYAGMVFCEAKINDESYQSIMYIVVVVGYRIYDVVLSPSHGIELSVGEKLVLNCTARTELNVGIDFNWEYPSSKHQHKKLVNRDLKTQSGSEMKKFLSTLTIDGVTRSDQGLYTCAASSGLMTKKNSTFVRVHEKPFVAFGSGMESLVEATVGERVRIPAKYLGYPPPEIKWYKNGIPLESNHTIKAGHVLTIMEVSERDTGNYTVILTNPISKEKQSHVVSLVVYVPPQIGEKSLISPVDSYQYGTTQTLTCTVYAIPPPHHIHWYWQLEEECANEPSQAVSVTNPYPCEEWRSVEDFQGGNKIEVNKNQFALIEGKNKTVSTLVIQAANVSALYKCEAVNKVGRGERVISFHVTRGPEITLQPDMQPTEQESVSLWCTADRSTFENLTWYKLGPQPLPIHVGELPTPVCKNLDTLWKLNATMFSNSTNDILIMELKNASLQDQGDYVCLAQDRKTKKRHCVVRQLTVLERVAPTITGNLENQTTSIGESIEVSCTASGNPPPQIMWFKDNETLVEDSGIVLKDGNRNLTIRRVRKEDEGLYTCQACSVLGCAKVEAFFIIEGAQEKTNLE

Kd (可溶性融合タンパク質 KDR-AP [1]): 0.82 nM
fold higher affinity than parent scFv p1C11 (可溶性融合タンパク質 KDR-AP [2]): 2.5 fold
HUVECのVEGF誘導性有糸分裂誘発の50%を抑制するのに必要な抗体濃度 ([3H]-TdR) (HUVEC上の細胞表面発現KDR (human)): 0.8 nM
IC50 (可溶性融合タンパク質 KDR-AP [3]): 0.8 nM
B1: キメラ抗KDR抗体 c-p1C11 (antibody, from another filing)
scFv: QVKLQQSGAELVGSGASVKLSCTTSGFNIKDFYMHWVKQRPEQGLEWIGWIDPENGDSDYAPKFQGKATMTADSSSNTAYLQLSSLTSEDTAVYYCNAYYGDYEGYWGQGTTVTVSSGGGGSGGGGSGGGGSDIELTQSPAIMSASPGEKVTITCSASSSVSYMHWFQQKPGTSPKLWIYSTSNLASGVPARFSGSGSGTSYSLTISRMEAEDAATYYCQQRSSYPFTFGSGTKLEIK

IC50 (可溶性融合タンパク質 KDR-AP [4]): 3 nM
IC50 (可溶性融合タンパク質 KDR-AP [3]): 2 nM
Kd (可溶性融合タンパク質 KDR-AP [5]): 2.1 nM
EC50 (可溶性融合タンパク質 KDR-AP [6]): 0.3 nM
B2: scFv p1C11 (scFv)
chain: B1 scFv
